The text below walks through data of the RNAGym collection of RNA variant scans (doi:10.7554/elife.90254).

Sequences and labels used below:
B1: OR4K15 (parent)
chain: GUUAACGGUCAUAGGCCAUGGAAACUAGGAGCACCAUUUCGCUGCCAGUGAAGAAAUGAACAAAGAAAAUCUGGGCCAGGCAGGCAUCAAAAGAAAUAGUCUUGCGCUCAACCAGAAAGUCUGUAAUCAUUUUAAGGGUA

Variants of B1 are the subject of the series. Description: self-cleavage, relative activity (ratio to wild type); higher = more cleavage; in vitro, sequencing; the parent is a self-cleaving ribozyme.
Turning to GUUAACGGUCAUAGGCCAUGGAAACUGGGAGCACCAUUUCGCUGCCAGUGAAGAAAUGAACAAAGAAAAUCUGGGCCAGGCAGGCAUCAAAAGAAAUAGUCUUGCGCUCAACCAGAAAGUCUGUAAUCAUCUUAAGGGUA [A27G U131C], the self-cleavage was found to be 1.67.

As to GUUAACGGUCAUAGGCCAUGGAAACUUGGAGCACCAUUUCGCUGCCAGUGAAGAAAUGAACAAAGAAAAUCUGGGCCAGGCAGGCAUCAAAGGAAAUAGUCUUGCGCUCAACCAGAAAGUCUGUAAUCAUUUUAAGGGUA [A27U A92G], the self-cleavage worked out at 1.83.

Turning to GUUAACGGUCAUAGGCCAUGGAAACUGGGAGCACCAUUUCGCUGCCAUUGAAGAAAUGAACAAAGAAAAUCUGGGCCAGGCAGGCAUCAAAAGAAAUAGUCUUGCGCUCAACCAGAAAGUCUGUAAUCAUUUUAAGGGUA [A27G G48U], the self-cleavage worked out at 0.5.

As to GUUAACGGUCAUAGGCCAUGGAAACUUGGAGCACCAUUUCGCUGCCAGUGAGGAAAUGAACAAAGAAAAUCUGGGCCAGGCAGGCAUCAAAAGAAAUAGUCUUGCGCUCAACCAGAAAGUCUGUAAUCAUUUUAAGGGUA [A27U A52G], the self-cleavage amounted to 1.91.

In the case of GUUAACGGUCAUAGGCCAUGGAAACUGGGAGCACCAUUUCGCUGCCAGUGAAGAAAUGAACAAAGAAAAUCUGGGCCAGGCAGGCAUCAAAAGAAAUAGUCUUGCGCUCAACCAGAAAGUCUGUAAUCAUUUGAAGGGUA [A27G U133G], the self-cleavage is 2.02.

GUUAACGGUCAUAGGCCAUGGAAACUGGGAGCACCAUUUCGCUGCCAGUGAAGAAAUGAACAAAGAAAAUCUGGGCCAGGCAGGCAUCAAAAGAAAUAGUCUUGCGCUCAACCAGAAAGCCUGUAAUCAUUUUAAGGGUA [A27G U120C]: the self-cleavage amounted to 0.68.

With GUUAACGGUCAUAGGCCAUGGAAACUUGGAGCACCAUUUCGCUGCCAGUGAAGAAAUGAACAAAGAAAAUCUGGGCCAGGCAGGCAUCAAAAGAAAUAGUCUUGCGCUCAACCAGAAGGUCUGUAAUCAUUUUAAGGGUA [A27U A118G], the self-cleavage was determined as 1.21.

Consider GUUAACGGUCAUAGGCCAUGGAAACUUGGAGCACCAUUUCGCUGCCAGUGAAGAAAUGAACAAAGAAAAUCUGGGCCAGGCAGGCAUCAAAAGAAAUAGUCUUGCGCUCAACCAGAAAGUCUGUGAUCAUUUUAAGGGUA [A27U A125G], for which the self-cleavage came to 0.84.

For GUUAACGGUCAUAGGCCAUGGAAACUGGGAGCACCAUUUCGCUGCCAGUGAAGAAAUGAACAAAGAAAAUCUGGGCCAGGCAGGCAUCAAAAGAAAUAGUCUUGCGCUCAACCAGAAAGUCUGUAAUCAUUUUAAGGGAA [A27G U139A], the self-cleavage is 1.27.

GUUAACGGUCAUAGGCCAUGGAAACUUGGAGCACCAUUUCGCUGCCAGUGAAAAAAUGAACAAAGAAAAUCUGGGCCAGGCAGGCAUCAAAAGAAAUAGUCUUGCGCUCAACCAGAAAGUCUGUAAUCAUUUUAAGGGUA [A27U G53A]: the self-cleavage came to 1.86.

Turning to GUUAACGGUCAUAGGCCAUGGAAACUUGGAGCACCAUUUCGCUGCCAGUGAAGAAAUGAACAAAGAAAAUCUGGGCCAGGCAGGCAUCAAAAGAAGUAGUCUUGCGCUCAACCAGAAAGUCUGUAAUCAUUUUAAGGGUA [A27U A96G], the self-cleavage was found to be 1.6.

For the variant GUUAACGGUCAUAGGCCAUGGAAACUUGGAGCACCAUUUCGCUGCCAGUGAAGAAAUGAACAAUGAAAAUCUGGGCCAGGCAGGCAUCAAAAGAAAUAGUCUUGCGCUCAACCAGAAAGUCUGUAAUCAUUUUAAGGGUA [A27U A64U], the self-cleavage worked out at 2.21.

GUUAACGGUCAUAGGCCAUGGAAACUGGGAGCACCAUUUCGCUGCCAGUGAAGAAAUGAACAAAGAAAAUCCGGGCCAGGCAGGCAUCAAAAGAAAUAGUCUUGCGCUCAACCAGAAAGUCUGUAAUCAUUUUAAGGGUA [A27G U72C]: the self-cleavage amounted to 0.38.

With GUUAACGGUCAUAGGCCAUGGAAACUGGGAGCACCAUUUCGCUGCCAGUGAACAAAUGAACAAAGAAAAUCUGGGCCAGGCAGGCAUCAAAAGAAAUAGUCUUGCGCUCAACCAGAAAGUCUGUAAUCAUUUUAAGGGUA [A27G G53C], the self-cleavage came out at 1.59.

Consider GUUAACGGUCAUAGGCCAUGGAAACUUGGGGCACCAUUUCGCUGCCAGUGAAGAAAUGAACAAAGAAAAUCUGGGCCAGGCAGGCAUCAAAAGAAAUAGUCUUGCGCUCAACCAGAAAGUCUGUAAUCAUUUUAAGGGUA [A27U A30G], for which the self-cleavage worked out at 0.38.

Regarding GUUAACGGUCAUAGGCCAUGGAAACUGGGAGCACCAUUUCGCUGCCAGUGAAGAAAUGAACAAAGAAAAUCUGGGCCAGGCAGGCAUCAAAAGAAAUAGUCUUGCGCUCAACCAGAAAGUCUGUAACCAUUUUAAGGGUA [A27G U127C], the self-cleavage turned out to be 0.56.

In the case of GUUAACGGUCAUAGGCCAUGGAAACUGGGAGCACCAUUUCGCUGCCAGUGAAGAAAUGAACAAAGAAAAUCUGGGCCAGGCAGGCAUCAAAAGAAAUAGUCUUGCGCUCAACCAGAAAGUCUGUAAACAUUUUAAGGGUA [A27G U127A], the self-cleavage is 1.58.

As to GUUAACGGUCAUAGGCCAUGGAAACUGGGAGCACCAUUUCGCUGCCAGUGAAGAAAUGAACAAAGAAAAUCUGGGCCAGGCAGGCACCAAAAGAAAUAGUCUUGCGCUCAACCAGAAAGUCUGUAAUCAUUUUAAGGGUA [A27G U87C], the self-cleavage was determined as 1.02.

For the variant GUUAACGGUCAUAGGCCAUGGAAACUGGGAGCACCAUUUCGCUGCCAGUGAAGAAAUGAACAAAGAAAAUCUGGGCCAGGCAGGCAACAAAAGAAAUAGUCUUGCGCUCAACCAGAAAGUCUGUAAUCAUUUUAAGGGUA [A27G U87A], the self-cleavage is 1.39.

For GUUAACGGUCAUAGGCCAUGGAAACUGGGAGCACCAUUUCGCUGCCAGUGAAGAAAUGAACAAAGAAAAUCUGGGCCAAGCAGGCAUCAAAAGAAAUAGUCUUGCGCUCAACCAGAAAGUCUGUAAUCAUUUUAAGGGUA [A27G G79A], the self-cleavage turned out to be 0.15.

For GUUAACGGUCAUAGGCCAUGGAAACUGAGAGCACCAUUUCGCUGCCAGUGAAGAAAUGAACAAAGAAAAUCUGGGCCAGGCAGGCAUCAAAAGAAAUAGUCUUGCGCUCAACCAGAAAGUCUGUAAUCAUUUUAAGGGUA [A27G G28A], the self-cleavage stood at 0.78.

For GUUAACGGUCAUAGGCCAUGGAAACUUGGAGCACCAUUUCGCUGCCAGUGAAGAAAUGAACAAAGAAAAUCUGGGCCAGGCAGGCAUCAAAAGAAAUAGUCUUGCGCUCAACCAGGAAGUCUGUAAUCAUUUUAAGGGUA [A27U A116G], the self-cleavage turned out to be 0.63.

Take GUUAACGGUCAUAGGCCAUGGAAACUGGGAGCACCAUUUCGCUGCCAGUGAAGAAAUGAACAAAGAAAAUCUGGGCCAGGCAGGCAUCAAAAGAAAUAGUCUUGUGCUCAACCAGAAAGUCUGUAAUCAUUUUAAGGGUA [A27G C105U]: the self-cleavage came out at 0.24.

Turning to GUUAACGGUCAUAGGCCAUGGAAACUUGGAGCACCAUUUCGCUGCCAGUGAAGAAAUGAACAAAGAAGAUCUGGGCCAGGCAGGCAUCAAAAGAAAUAGUCUUGCGCUCAACCAGAAAGUCUGUAAUCAUUUUAAGGGUA [A27U A68G], the self-cleavage is 1.61.

For the variant GUUAACGGUCAUAGGCCAUGGAAACUUGGAGCACCAUUUCGCUGCCAGUGAAGAAAUGAACAAAGAAAAUCUGGGCCAGGCAAGCAUCAAAAGAAAUAGUCUUGCGCUCAACCAGAAAGUCUGUAAUCAUUUUAAGGGUA [A27U G83A], the self-cleavage amounted to 1.31.

Consider GUUAACGGUCAUAGGCCAUGGAAACUGGGAGCACCAUUUCGCUGCCAGUGAAGAAAUGAACAAAGAAAAUCUGGGCCAGGCAGGCAUCAAAAGAAAUAGUCUUGCGCUCAACCAGAAAGUCUGUAAUCAUUUUGAGGGUA [A27G A134G], for which the self-cleavage worked out at 1.86.

As for GUUAACGGUCAUAGGCCAUGGAAACUUGGAGCACCGUUUCGCUGCCAGUGAAGAAAUGAACAAAGAAAAUCUGGGCCAGGCAGGCAUCAAAAGAAAUAGUCUUGCGCUCAACCAGAAAGUCUGUAAUCAUUUUAAGGGUA [A27U A36G], the self-cleavage was 1.64.

On to GUUAACGGUCAUAGGCCAUGGAAACUUGGAGCACCAUUUCGCUGCCAGUGAAGAAAUGGACAAAGAAAAUCUGGGCCAGGCAGGCAUCAAAAGAAAUAGUCUUGCGCUCAACCAGAAAGUCUGUAAUCAUUUUAAGGGUA [A27U A59G], for which the self-cleavage turned out to be 0.92.

With GUUAACGGUCAUAGGCCAUGGAAACUGGGAGCACCAUUUCGCUGCCAGUGAAGAAAUGAACAAAGAAAAUCUGGGCCAGGCAGGCAUCAAAAGAAAUAGUCAUGCGCUCAACCAGAAAGUCUGUAAUCAUUUUAAGGGUA [A27G U102A], the self-cleavage came out at 0.63.

Consider GUUAACGGUCAUAGGCCAUGGAAACUGGGAGCACCAUUUCGCUGCCAGUGAAGAAAUGAACAAAGAAAAUCUGGGCCAGGCAGGCAUCAAAAGAAAUAGUCUCGCGCUCAACCAGAAAGUCUGUAAUCAUUUUAAGGGUA [A27G U103C], for which the self-cleavage was determined as 0.76.

For the variant GUUAACGGUCAUAGGCCAUGGAAACUGGGAGCACCAUUUCGCUGCCAGCGAAGAAAUGAACAAAGAAAAUCUGGGCCAGGCAGGCAUCAAAAGAAAUAGUCUUGCGCUCAACCAGAAAGUCUGUAAUCAUUUUAAGGGUA [A27G U49C], the self-cleavage is 2.01.

For the variant GUUAACGGUCAUAGGCCAUGGAAACUGGGAGCACCAUUUCGCUGCCAGAGAAGAAAUGAACAAAGAAAAUCUGGGCCAGGCAGGCAUCAAAAGAAAUAGUCUUGCGCUCAACCAGAAAGUCUGUAAUCAUUUUAAGGGUA [A27G U49A], the self-cleavage stood at 0.93.

On to GUUAACGGUCAUAGGCCAUGGAAACUUGGAGCACCAUUUCGCUGCCAGUGAAGAAAUGAACAAAGAAAAUCUGGGCCAGGCAGGCGUCAAAAGAAAUAGUCUUGCGCUCAACCAGAAAGUCUGUAAUCAUUUUAAGGGUA [A27U A86G], for which the self-cleavage amounted to 1.43.

For GUUAACGGUCAUAGGCCAUGGAAACUGGGAGCACCAUUACGCUGCCAGUGAAGAAAUGAACAAAGAAAAUCUGGGCCAGGCAGGCAUCAAAAGAAAUAGUCUUGCGCUCAACCAGAAAGUCUGUAAUCAUUUUAAGGGUA [A27G U39A], the self-cleavage turned out to be 1.42.

With GUUAACGGUCAUAGGCCAUGGAAACUGGGAGCACCAUUCCGCUGCCAGUGAAGAAAUGAACAAAGAAAAUCUGGGCCAGGCAGGCAUCAAAAGAAAUAGUCUUGCGCUCAACCAGAAAGUCUGUAAUCAUUUUAAGGGUA [A27G U39C], the self-cleavage came out at 1.14.

In the case of GUUAACGGUCAUAGGCCAUGGAAACUUGGAGCACCAUUUCGCUGCCAGUGAAGAAAUGAACAGAGAAAAUCUGGGCCAGGCAGGCAUCAAAAGAAAUAGUCUUGCGCUCAACCAGAAAGUCUGUAAUCAUUUUAAGGGUA [A27U A63G], the self-cleavage was 2.61.

Turning to GUUAACGGUCAUAGGCCAUGGAAACUGGGAGCACCAUUUCGCUGCCAGUGAAGAAAUGAACAAAGAAAAUCUGGGCCAGGCAGGCAUCAAAAGAAAUAGUCUUGCGCUCAACCAGAAAGUCUGUAAUCACUUUAAGGGUA [A27G U130C], the self-cleavage is 0.63.

For the variant GUUAACGGUCAUAGGCCAUGGAAACUUGGAGCACCAUUUCGCUGCCAGUGAAGAAAUGAACAAAGAAAAUCUGGGCCAGGCAGGCAUCAAGAGAAAUAGUCUUGCGCUCAACCAGAAAGUCUGUAAUCAUUUUAAGGGUA [A27U A91G], the self-cleavage turned out to be 1.19.

Turning to GUUAACGGUCAUAGGCCAUGGAAACUGGGAGCACCAUCUCGCUGCCAGUGAAGAAAUGAACAAAGAAAAUCUGGGCCAGGCAGGCAUCAAAAGAAAUAGUCUUGCGCUCAACCAGAAAGUCUGUAAUCAUUUUAAGGGUA [A27G U38C], the self-cleavage worked out at 1.12.

With GUUAACGGUCAUAGGCCAUGGAAACUGGGAGCACCAUUUCGCUGCCAGUGAAGAAAUGAACAAAGAAAAUCUGGGCCAGGCAGGCAUCAAAAGAAAUAGUCUUGCGCUCAACCAGAAAGUCCGUAAUCAUUUUAAGGGUA [A27G U122C], the self-cleavage stood at 1.45.

For the variant GUUAACGGUCAUAGGCCAUGGAAACUGGGAGCACCAUUUCGCUGCCAGUGAAGAAAUGAACAAAGAAAAUCUGGGCCAGGCAGGCAUCAAAAGAAAUAGUCUUGCGCUCAACCAGAAAGUCAGUAAUCAUUUUAAGGGUA [A27G U122A], the self-cleavage turned out to be 1.47.
